The text below walks through data of paper PMC3884107 (PLoS ONE, 2013).

For assay [1], the target named is T1, human RON on 3T3-hRON cells (human, UniProt Q04912-1 25-1400).
T1 construct: human RON (Recepteur d'Origine Nantais, MST1R) expressed on the surface of 3T3-hRON cells; In the functional rows this molecule also stands for human RON on A2780-hRON, BxPC3, HCT15 and HPC5 cells; also called Recepteur d'Origine Nantais; MST1R; source: 3T3 cells stably transfected with human RON (3T3-hRON), on cells
The assay is described as follows: radioligand binding; competition of 125I-MSP with unlabeled MSP on 3T3-hRON cells, 4 h on ice. The note with it: one partner purified.

For assay [2], the target named is T2, RON-Fc (human RON Sema, PSI and IPT1 domains, E25-M682, Fc fusion with human IgG1) (human, UniProt Q04912-1 25-682).
T2 construct: human RON (Recepteur d'Origine Nantais, MST1R), Sema, PSI and IPT1 domains, E25-M682; also called RON-Fc fusion protein; source: CHO cells; purified (MabSelect Sure, SEC)
T2 sequence (looked up): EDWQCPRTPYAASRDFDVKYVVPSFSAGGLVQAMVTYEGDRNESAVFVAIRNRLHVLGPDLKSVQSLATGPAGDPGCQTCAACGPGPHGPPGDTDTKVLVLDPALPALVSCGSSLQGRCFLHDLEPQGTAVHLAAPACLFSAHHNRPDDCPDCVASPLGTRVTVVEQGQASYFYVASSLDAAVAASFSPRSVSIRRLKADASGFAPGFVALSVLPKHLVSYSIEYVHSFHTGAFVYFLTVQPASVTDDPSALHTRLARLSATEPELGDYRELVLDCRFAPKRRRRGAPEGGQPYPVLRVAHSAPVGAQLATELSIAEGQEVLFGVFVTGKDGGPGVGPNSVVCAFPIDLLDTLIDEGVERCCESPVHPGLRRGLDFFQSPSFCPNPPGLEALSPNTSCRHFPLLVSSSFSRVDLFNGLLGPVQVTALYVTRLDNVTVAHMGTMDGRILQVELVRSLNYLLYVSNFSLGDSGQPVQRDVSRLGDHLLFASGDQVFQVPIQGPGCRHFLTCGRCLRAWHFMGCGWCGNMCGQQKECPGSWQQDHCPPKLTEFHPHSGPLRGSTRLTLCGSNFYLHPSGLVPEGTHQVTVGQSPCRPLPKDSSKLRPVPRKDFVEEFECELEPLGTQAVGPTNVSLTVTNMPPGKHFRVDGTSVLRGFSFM
Briefly: ELISA; RON-Fc (1 µg/ml) captured on plate-coated rabbit anti-human IgG Fc; MSP 1000 nM-0.2 pM, 1 h, room temperature; 50 mM HEPES pH 7.2, 150 mM NaCl, 5 mM CaCl2, 1% BSA, 0.1% Tween-20; bound MSP detected with anti-His-HRP; 4-parameter fit. As to conditions: both partners purified.

In assay [3] the target is T1, human RON on 3T3-hRON cells. Briefly: radioligand binding; competition of 125I-MSP with unlabeled MSP (from 5 µM) on 150,000 3T3-hRON cells, 2 h at room temperature; DMEM, 1% BSA, 325 nM human IgG, 50 mM HEPES pH 7.2, 0.1% sodium azide; Scatchard analysis. The note with it: one partner purified.
Assay [4] deals with T2, RON-Fc (human RON Sema, PSI and IPT1 …). The assay is described as follows: BLI; RON-Fc (10 µg/ml) loaded on anti-human IgG Fc biosensors, Octet RED384; MSP, MSP β or scMSP 75-4.7 nM, 400 s association, 400 s dissociation, 30°C; global 1:1 fit, KD = koff/kon. As to conditions: both partners purified.
Assay [5] shares this target. The assay is described as follows: SPR; RON-Fc captured (50-100 RU) on immobilised anti-human Fc surfaces, CM5 chip, Biacore 3000; MSP, MSP β or scMSP injected 500-3.9 nM in HBS-P (10 mM HEPES pH 7.5, 150 mM NaCl, 0.005% P20), 25°C, 30 µl/min; global 1:1 Langmuir fit, KD = koff/kon. As to conditions: both partners purified.
Assay [6] concerns the target T3, RON Sema/PSI (human RON residues E25-P568) (human, UniProt Q04912-1 25-568).
T3 construct: human RON (Recepteur d'Origine Nantais, MST1R), Sema and PSI domains, E25-P568; Expressed with an N-terminal gp67 secretion signal; source: Trichoplusia ni insect cells, baculovirus; purified from the media (Ni-NTA, SEC)
T3 sequence (looked up): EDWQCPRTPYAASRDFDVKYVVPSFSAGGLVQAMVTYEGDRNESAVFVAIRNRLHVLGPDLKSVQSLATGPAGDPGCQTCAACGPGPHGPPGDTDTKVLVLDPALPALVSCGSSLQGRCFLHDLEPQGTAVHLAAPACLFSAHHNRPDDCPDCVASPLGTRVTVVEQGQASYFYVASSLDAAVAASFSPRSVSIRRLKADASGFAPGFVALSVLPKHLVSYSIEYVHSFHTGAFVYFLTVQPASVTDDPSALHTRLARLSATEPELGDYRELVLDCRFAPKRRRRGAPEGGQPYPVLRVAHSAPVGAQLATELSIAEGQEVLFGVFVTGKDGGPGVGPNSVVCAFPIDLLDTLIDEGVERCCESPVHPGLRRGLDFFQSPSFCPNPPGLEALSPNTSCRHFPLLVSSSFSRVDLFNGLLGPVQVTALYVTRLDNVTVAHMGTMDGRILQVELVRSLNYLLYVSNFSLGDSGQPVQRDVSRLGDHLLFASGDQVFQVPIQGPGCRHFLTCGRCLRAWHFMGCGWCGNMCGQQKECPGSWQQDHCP
The assay is described as follows: SPR; RON Sema/PSI amine-coupled to a CM5 chip, Biacore 3000; MSP, MSP β or scMSP injected 500-3.9 nM in HBS-P (10 mM HEPES pH 7.5, 150 mM NaCl, 0.005% P20), 25°C, 30 µl/min; global 1:1 Langmuir fit, KD = koff/kon. The note with it: both partners purified. (Surface plasmon resonance follows binding to a sensor surface in real time, without labels.)

B1: MSP 689R (active two-chain macrophage stimulating protein; Q19-G711; C672A) (ligand, human)
chain 1: QRSPLNDFQVLRGTELQHLLHAVVPGPWQEDVADAEECAGRCGPLMDCRAFHYNVSSHGCQLLPWTQHSPHTRLRRSGRCDLFQKKDYVRTCIMNNGVGYRGTMATTVGGLPCQAWSHKFPNDHKYTPTLRNGLEENFCRNPDGDPGGPWCYTTDPAVRFQSCGIKSCREAACVWCNGEEYRGAVDRTESGRECQRWDLQHPHQHPFEPGKFLDQGLDDNYCRNPDGSERPWCYTTDPQIEREFCDLPRCGSEAQPRQEATTVSCFRGKGEGYRGTANTTTAGVPCQRWDAQIPHQHRFTPEKYACKDLRENFCRNPDGSEAPWCFTLRPGMRAAFCYQIRRCTDDVRPQDCYHGAGEQYRGTVSKTRKGVQCQRWSAETPHKPQFTFTSEPHAQLEENFCRNPDGDSHGPWCYTMDPRTPFDYCALRRCADDQPPSILDPPDQVQFEKCGKRVDRLDQRRSKLR
chain 2: VVGGHPGNSPWTVSLRNRQGQHFCGGSLVKEQWILTARQCFSSCHMPLTGYEVWLGTLFQNPQHGEPSLQRVPVAKMVCGPSGSQLVLLKLERSVTLNQRVALICLPPEWYVVPPGTKCEIAGWGETKGTGNDTVLNVALLNVISNQECNIKHRGRVRESEMCTEGLLAPVGACEGDYGGPLACFTHNAWVLEGIIIPNRVCARSRWPAVFTRVSVFVDWIHKVMRLG
notes: MSP alpha-chain of human macrophage stimulating protein: from Q19 of the pro-MSP construct to R483 (cleavage between R483 and V484); disulfide-linked to the beta-chain; Made as single-chain pro-MSP (Q19-G711; C672A; C-terminal 6-His) and cleaved by sHepsin; For the radioligand assay part of the protein was iodinated with 125I (Iodogen); also called HGFL; MST1; source: CHO cells, transiently …
On to B1, for which the Kd (commonly a measure of binding affinity in units of concentration) in assay [1] was determined as 23 nM; in assay [3], 12.6 nM. Moreover, it took 0.1 nM to reach a half-maximal effect in assay [2] (EC50).

B2: MSP β 689R (V484-G711; C588S, C672A) (domain or fragment, human, UniProt P26927 484-711, looked up)
chain: VVGGHPGNSPWTVSLRNRQGQHFCGGSLVKEQWILTARQCFSSCHMPLTGYEVWLGTLFQNPQHGEPSLQRVPVAKMVCGPSGSQLVLLKLERSVTLNQRVALISLPPEWYVVPPGTKCEIAGWGETKGTGNDTVLNVALLNVISNQECNIKHRGRVRESEMCTEGLLAPVGACEGDYGGPLACFTHNAWVLEGIIIPNRVCARSRWPAVFTRVSVFVDWIHKVMRLG
notes: source: CHO cells, transiently transfected, secreted; purified (Ni-NTA, SEC); not shown: His6, C-terminal, kept
With B2, in assay [4], binding was characterised by a dissociation constant (Kd) of 7.5 nM, the off-rate constant (koff) (commonly the rate constant with which the complex falls apart) is 0.0035 s⁻¹ and the kon (commonly a measure of how fast the partners come together) was 470000 M⁻¹ s⁻¹. Besides, the EC50 (usually the concentration giving half of the maximal effect) in assay [2] was 0.05 nM. Besides, in assay [5], binding was put at a Kd of 9.6 nM, the dissociation rate constant (koff) amounted to 0.0175 s⁻¹ and the kon stood at 1.81e+06 M⁻¹ s⁻¹. Also, in assay [6], the Kd was determined as 6.6 nM, the koff came to 0.0184 s⁻¹ and the kon amounted to 2.71e+06 M⁻¹ s⁻¹.

B3: MSP β 672C 689C (V484-G711; C588S, without C672A; 689C) (domain or fragment, human, UniProt P26927 484-711, looked up)
chain: VVGGHPGNSPWTVSLRNRQGQHFCGGSLVKEQWILTARQCFSSCHMPLTGYEVWLGTLFQNPQHGEPSLQRVPVAKMVCGPSGSQLVLLKLERSVTLNQRVALISLPPEWYVVPPGTKCEIAGWGETKGTGNDTVLNVALLNVISNQECNIKHRGRVRESEMCTEGLLAPVGACEGDYGGPLACFTHNCWVLEGIIIPNRVCARSCWPAVFTRVSVFVDWIHKVMRLG
notes: source: CHO cells, transiently transfected, secreted; purified (Ni-NTA, SEC)
Consider B3, for which, in assay [5], binding was characterised by a dissociation constant (Kd) of 9.7 nM, the koff was 0.0075 s⁻¹ and the kon was 770000 M⁻¹ s⁻¹.

B4: MSP β 672C 689R (V484-G711; C588S, without C672A) (domain or fragment, human, UniProt P26927 484-711, looked up)
chain: VVGGHPGNSPWTVSLRNRQGQHFCGGSLVKEQWILTARQCFSSCHMPLTGYEVWLGTLFQNPQHGEPSLQRVPVAKMVCGPSGSQLVLLKLERSVTLNQRVALISLPPEWYVVPPGTKCEIAGWGETKGTGNDTVLNVALLNVISNQECNIKHRGRVRESEMCTEGLLAPVGACEGDYGGPLACFTHNCWVLEGIIIPNRVCARSRWPAVFTRVSVFVDWIHKVMRLG
notes: as for B3
Consider B4, for which, in assay [5], the Kd turned out to be 6.3 nM, the koff was 0.0066 s⁻¹ and the kon was 860000 M⁻¹ s⁻¹.

B5: MSP 689C (active two-chain macrophage stimulating protein; Q19-G711; C672A; 689C) (ligand, human)
chain 1: QRSPLNDFQVLRGTELQHLLHAVVPGPWQEDVADAEECAGRCGPLMDCRAFHYNVSSHGCQLLPWTQHSPHTRLRRSGRCDLFQKKDYVRTCIMNNGVGYRGTMATTVGGLPCQAWSHKFPNDHKYTPTLRNGLEENFCRNPDGDPGGPWCYTTDPAVRFQSCGIKSCREAACVWCNGEEYRGAVDRTESGRECQRWDLQHPHQHPFEPGKFLDQGLDDNYCRNPDGSERPWCYTTDPQIEREFCDLPRCGSEAQPRQEATTVSCFRGKGEGYRGTANTTTAGVPCQRWDAQIPHQHRFTPEKYACKDLRENFCRNPDGSEAPWCFTLRPGMRAAFCYQIRRCTDDVRPQDCYHGAGEQYRGTVSKTRKGVQCQRWSAETPHKPQFTFTSEPHAQLEENFCRNPDGDSHGPWCYTMDPRTPFDYCALRRCADDQPPSILDPPDQVQFEKCGKRVDRLDQRRSKLR
chain 2: VVGGHPGNSPWTVSLRNRQGQHFCGGSLVKEQWILTARQCFSSCHMPLTGYEVWLGTLFQNPQHGEPSLQRVPVAKMVCGPSGSQLVLLKLERSVTLNQRVALICLPPEWYVVPPGTKCEIAGWGETKGTGNDTVLNVALLNVISNQECNIKHRGRVRESEMCTEGLLAPVGACEGDYGGPLACFTHNAWVLEGIIIPNRVCARSCWPAVFTRVSVFVDWIHKVMRLG
notes: MSP alpha-chain of human macrophage stimulating protein: from Q19 of the pro-MSP construct to R483 (cleavage between R483 and V484); disulfide-linked to the beta-chain; Made as single-chain pro-MSP (Q19-G711; C672A; C-terminal 6-His) and cleaved by sHepsin; For the radioligand assay part of the protein was iodinated with 125I (Iodogen); source: CHO cells, transiently transfected, secreted; …
In the case of B5, the results for the Kd in assay [1] and in assay [3] were 25.7 nM and 13 nM, respectively. The concentration for a half-maximal effect (EC50) in assay [2] stood at 0.2 nM.

B6: MSP β 689C (V484-G711; C588S, C672A; 689C) (domain or fragment, human, UniProt P26927 484-711, looked up)
chain: VVGGHPGNSPWTVSLRNRQGQHFCGGSLVKEQWILTARQCFSSCHMPLTGYEVWLGTLFQNPQHGEPSLQRVPVAKMVCGPSGSQLVLLKLERSVTLNQRVALISLPPEWYVVPPGTKCEIAGWGETKGTGNDTVLNVALLNVISNQECNIKHRGRVRESEMCTEGLLAPVGACEGDYGGPLACFTHNAWVLEGIIIPNRVCARSCWPAVFTRVSVFVDWIHKVMRLG
notes: as for B2
As for B6, the Kd in assay [4] is 9.1 nM; in assay [5], 9 nM; in assay [6], 9.1 nM. Further, the koff in assay [4] came out at 0.0093 s⁻¹; in assay [5], 0.0419 s⁻¹; in assay [6] it was 0.0134 s⁻¹. The association rate constant (kon) stood at 1.05e+06 M⁻¹ s⁻¹ in assay [4], 4.42e+06 M⁻¹ s⁻¹ in assay [5] and 1.46e+06 M⁻¹ s⁻¹ in assay [6]. In assay [2], it took 0.1 nM to reach a half-maximal effect (EC50).
